Test results from patent publication US11702469B2, “Recombinant EGFL7, EGFL7 antibodies, and uses thereof” (Ohio State Innovation Foundation, priority 2017, dated 2023).

Columns and labels:
[1] = test system: CD34+ primary AML patient cells; assay: Cell-trace violet (CTV) membrane-labeling retention, quiescence; assay type: cell-based, human; details: vs unstimulated / IgG1 controls
Text: FIG. 17A-17C. EGFL7 in LSCs. FIG. 17A. qRT-PCR of EGFL7 in LSC-enriched and non-LSC enriched subpopulations of primary AML patient samples normalized to B-ACTIN. Number of quiescent (CTV^MAX) AML cells treated with FIG. 17B. rEGFL7 or control (vs Unstim). FIG. 17C. anti-EGFL7 (Parsatuzumab) antibody or IgG1 control (vs Unstim). *P<0.05.
A morphologically homogenous and functionally static blast population present in the BM and blood of individual AML patients has now evolved into the current perspective of multiple dynamic and heterogeneous cell subpopulations which includes the bulk blast population and the relatively rare leukemia initiating cells (LICs) also referred to as LSCs. Thus, targeting both LSCs and bulk blasts is necessary for complete eradication of the disease. To determine whether EGFL7 has a role in LCS, the LSC-enriched population was first determined within each AML patient sample using long-term colony initiating cell (LTC-IC) assays. […] Next, to determine whether EGFL7 has a role in LSC function, CD34+ cells were isolated and stimulated them with rEGFL7 protein and performed LTC-IC assays. […] To determine whether EGFL7 regulates LSC functions such as cellular quiescence, membrane-labeling retention experiments were performed with cell-trace violet dye (CTV). […]

[2] = test system: non-small cell lung cancer; details: mouse, in vivo; cited from earlier work
HES-1 = HES-1 / HES1 RT-PCR in primary AML blasts; assay type: cell-based, human
Procedure: FIG. 15A-15D. EGFL7 binds and antagonizes NOTCH2 signaling. FIG. 15A. Co-IPs in Kasumi-1 cells using anti-EGFL7 antibody or normal rabbit IgG in Protein G Plus/Protein A agarose beads. Eluate was analyzed by immunoblotting for NOTCH1,-3, and EGFL7. FIG. 15B. Co-IPs with rabbit anti NOTCH1-3 antibody or normal rabbit IgG in Protein G Plus/Protein A agarose beads. FIG. 15C. Immunoblot for cleaved and total NOTCH2 in primary AML blasts stimulated in 0.25 μM rEGFL7. FIG. 15D. RT-PCR on primary AML blasts stimulated with 0.25 μM rEGFL7, *P<0.05.
FIG. 18A-18B. Parsatuzumab decreases blast growth and activation of NOTCH downstream signaling. FIG. 18A. […]
FIG. 23A-23E. […] (FIG. 23B) Total RNA was extracted for quantitative real time (qRT-PCR) analysis of HES1 mRNA with β-ACTIN as internal control. *p<0.05 vs un-stimulated control (Unstim). […] Total RNA was extracted for quantitative real time RT-PCR analysis of HES1 mRNA with β-ACTIN as internal control. *p<0.05, ***p<0.001 vs IgG.
Total RNA was extracted using Trizol reagent (Invitrogen, Carlsbad, Calif., USA). cDNA was synthesized using SuperScript III reagents (Invitrogen) according to the manufacturer's instruction. Quantitative Real-Time RT-PCR was performed using commercially available TaqMan Gene Expression Assay primers and the 7900HT Fast Real-Time PCR System (Applied Biosystems, Foster City, Calif., USA). […]

B1: Parsatuzumab: Anti-human EGFL7 therapeutic antibody (Parsatuzumab) obtained from Creative Biolabs; blocking monoclonal antibody (antibody, chains of the INN, looked up, V domains shown)
VH: EVQLVESGGGLVQPGGSLRLSCAASGYTFIDYYMNWVRQAPGKGLEWVGDINLDNSGTHYNQKFKGRFTISRDKSKNTAYLQMNSLRAEDTAVYYCAREGVYHDYDDYAMDYWGQGTLVTVSS
VL: DIQMTQSPSSLSASVGDRVTITCRTSQSLVHINAITYLHWYQQKPGKAPKLLIYRVSNRFSGVPSRFSGSGSGTDFTLTISSLQPEDFATYYCGQSTHVPLTFGQGTKVEIK
- number of quiescent cells (CTV^MAX) [1]: decrease in the number of quiescent AML cells
- overall survival [2]: increased overall survival
- tumor size [2]: decreased tumor size
- expression of HES1 (HES-1; 100 μg/ml, 2 and 10 hrs post treatment, vs IgG): concomitant increases
- HES-1 mRNA expression (HES-1; 4 and 24 hours after addition, vs IGg1 controls): significant increases in HES-1 expression
